Measurements: patent US8361965B2, “Recombinant chimeric protein of neutrophil inhibitory factor and hirugen, and pharmaceutical composition thereof” (Lunan Pharmaceutical Group Corporation, priority 2008, dated 2013)
Where “and” joins values, the source holds several entries; their conditions need not be identical. Equal values may be shown once. Read-outs that look alike come from different tables or passages of the source.

Experiments:
[1] = system: experimental cerebral hematoma in rats; assay: effects on experimental cerebral hematoma in rats; type: in vivo, SD rats; parameters: key to behavioral score: neurologic defect score, full score 11; higher = more severe disorder; details: 2 mg/kg bid caudal vein; for behavioral score: full score 11
Experimental: SD rats were randomly divided into 4 groups (8 animals per group), including model group, NHH group, NIF group and TNHH group. The rats in each group were anesthetized by chloral hydrate, and then 0.1 ml blood was collected by amputation of tail. The rats were fixed in a stereotaxic apparatus. Median incision of scalp was performed and the periosteum was cut open to expose bregma. Subsequently, a small hole with a diameter of 1 mm was perforated for needle insertion of microsyringe fixed on the stereotaxic apparatus with insertion depth of 5.8 mm (i.e to the position of caudate nucleus) at the site which was 1 mm rearward to the bregma and 3 mm left to the midline, and then 0.1 ml autoblood was injected slowly. Neurological functional defect score was immediately evaluated based on the evaluation criterion after the animal got conscious. The animal with behavior score less than 11 was selected in this study. Behavior score evaluation was continuously carried out after the establishment of model till the end of the experiment.
The neurologic function defect score was evaluated at 5 time points of 4 h, 12 h, 24 h, 48 h and 72 h after the model establishment. Changes of brain water content and histopathological observation were performed at 72 h after the model establishment on sacrificed rats.
Corresponding medicaments (2 mg/kg, bid) were administered through the caudal vein to animals with administration volume of 1 ml/100 g in each group after model animal was successfully established (according to the score less than 11 based on the behavior score evaluation), while the model group received physiological saline in the corresponding volume.
The brain was taken out immediately after the sacrifice of animals, and then […] ectocinerea (cortex was removed) at the edge of haematoma was collected. The brain water content was determined using dry and wet method based on the following formula: Brain water content=(wet weight−dry weight)/wet weight×100%
The brain was immediately taken out by decollation at selected time points, and it was sliced up to be 2 mm thick along the coronal section and then fixed in 10% formaldehyde. The slices were stained by regular HE and mounted. Then the pathological changes occurred in pathological region and the neighboring brain tissues were observed.
Evaluation was performed at the time of 4 h, 12 h, 24 h, 48 h and 72 h after surgery. The method was described as follows:
The flection of forelimbs was observed by lifting the rat by its tail. If the forelimbs symmetrically extended toward the floor, the score was 0. While if wrist flection, or elbow inflection, or internal rotation of shoulder, or both elbow inflection and internal rotation of shoulder occurred to forelimbs of the rat on the opposite side of the surgery part, it was evaluated as scores of 1, 2, 3 and 4, respectively.
The animal was placed on flat floor, and then both shoulders were pushed to move towards the opposite side to examine the resistance. If the resistances on both sides were equal and forceful, it was evaluated as 0. While if the resistance decreased slightly, mildly or severely when pushed to the opposite side of the surgery part, it was evaluated as 1, 2 or 3, respectively.
Both forelimbs of the animal were placed on a metal mesh to observe the muscular tension. The rat with equal and forceful muscular tension of both forelimbs was evaluated as 0. In the same way, the rat was evaluated as 1, 2 or 3, respectively with the reduction of muscular tension on the opposite side of the surgery part mentioned above.
The animal tended to keep turning around to one side was evaluated as 1. Based on the evaluation criterion (with full score of 11), the higher the score was evaluated, the more severe the behavior disorder was.

[2] = system: leukocyte adhesion; assay: anti-leukocyte adhesion activity, in vitro comparative analysis; type: cell-based
[3] = system: focal cerebral ischemia-reperfusion injury in rats; type: in vivo, Sprague-Dawley (SD) rats
[4] = system: rabbit whole blood; assay: in vitro whole blood anticoagulation assay; parameters: species or system white rabbit; details: for Test results (blood coagulation): room temperature 15 min
Experimental: TNHH was diluted to 4 mg/ml, 2 mg/ml, 1 mg/ml, 0.5 mg/ml respectively with phosphate buffer solution (10 mmol/L PB, 0.15 mol/L NaCl, pH7.4). Heparin sodium was prepared to 1 mg/ml with the same buffer solution.
Venous blood was taken from marginal ear vein of the rabbit, and rapidly added into 0#-5# tubes. 0.2 ml of the diluted TNHH samples with different concentrations was added into the 1#-4# tubes, respectively. 0.2 ml phosphate buffer solution was added into the 0# tube, which was used as a negative control. 0.2 ml heparin sodium (1 mg/ml) was added into the 5# tube, which was used as a positive control. The reagents were mixed rapidly and stored at room temperature for 15 min for observing the results.

[5] = M-1, TNHH 2.25 mg/kg i.v. (middle dose)
[6] = M-1, TNHH 6.75 mg/kg i.v. (high dose)
[7] = M-2, TNHH 2.25 mg/kg i.v. (middle dose)
[8] = M-2, TNHH 6.75 mg/kg i.v. (high dose)

B1: TNHH: recombinant chimeric protein of neutrophil inhibitory factor and hirugen, Met-NIF-GGGGG-FPRPGSGG-Hirugen (SEQ ID NO: 3), expressed in E. coli (protein)
chain: MNEHNLRCPQNGTEMPGFNDSIRLQFLAMHNGYRSKLALGHISITEESESDDDDDFGFLPDFAPRASKMRYLEYDCEAEKSAYMSARNCSDSSSPPEGYDENKYIFENSNNISEAALKAMISWAKEAFNLNKTKEGEGVLYRSNHDISNFANLAWDAREKFGCAVVNCPLGEIDDETNHDGETYATTIHVVCHYPKINKTEGQPIYKVGTPCDDCSEYTKKADNTTSADPVCIPDDGVCFIGSKADYDSKEFYRFRELGGGGGFPRPGSGGNGDFEEIPEEYL
modifications: N-terminal Met
behavioral score ([1]; 4 h): 2.00 ± 1.07
behavioral score ([1]; 12 h): 2.00 ± 0.76
behavioral score ([1]; 24 h): 2.25 ± 0.46
behavioral score ([1]; 48 h): 2.12 ± 0.64
Brain water content (%) ([1]; 72 h, dry and wet method): 78.28 ± 1.97 %
behavioral score ([1]; 72 h): 2.88 ± 1.46
titer against leukocyte adhesion ([2]; TNHH 1.0 mg/ml): 720 unit/ml
anti-leukocyte adhesion activity ([2]; in vitro): 750 Unit/mg
Cerebral infarction volume (%), based on the total volume of the brain ([3]; M-1 (occlusion 1 h, reperfusion 48 h), TNHH 0.75 mg/kg i.v. (low dose)): 19.93±12.40%
nervous symptom score ([3]; M-1 (occlusion 1 h, reperfusion 48 h), TNHH 0.75 mg/kg i.v., 2 h): 1.46 ± 0.58
Decrease in percentage (%), compared with corresponding model group ([3]; M-1, TNHH 0.75 mg/kg i.v. (low dose)): 10.54%
nervous symptom score ([3]; M-1, TNHH 0.75 mg/kg i.v., 6 h): 1.42 ± 0.60
nervous symptom score ([3]; M-1, TNHH 0.75 mg/kg i.v., 12 h): 1.42 ± 0.60
nervous symptom score ([3]; M-1, TNHH 0.75 mg/kg i.v., 24 h): 1.40 ± 0.43
nervous symptom score ([3]; M-1, TNHH 0.75 mg/kg i.v., 48 h): 1.36 ± 0.62
Cerebral infarction volume (%), based on the total volume of the brain [3, 5]: 19.41±11.74%
Decrease in percentage (%), compared with corresponding model group [3, 5]: 12.88%
nervous symptom score ([3]; M-1, TNHH 2.25 mg/kg i.v., 2 h): 1.47 ± 0.92
nervous symptom score ([3]; M-1, TNHH 2.25 mg/kg i.v., 6 h): 1.47 ± 0.92
nervous symptom score ([3]; M-1, TNHH 2.25 mg/kg i.v., 12 h): 1.37 ± 0.92
nervous symptom score ([3]; M-1, TNHH 2.25 mg/kg i.v., 24 h): 1.38 ± 0.41
nervous symptom score ([3]; M-1, TNHH 2.25 mg/kg i.v., 48 h): 1.30 ± 0.76
Cerebral infarction volume (%), based on the total volume of the brain [3, 6]: 12.89±8.94%
Decrease in percentage (%), compared with corresponding model group [3, 6]: 42.14% and 42.15** %
nervous symptom score ([3]; M-1, TNHH 6.75 mg/kg i.v., 2 h): 1.50 ± 0.58
nervous symptom score ([3]; M-1, TNHH 6.75 mg/kg i.v., 6 h): 1.50 ± 0.68
nervous symptom score ([3]; M-1, TNHH 6.75 mg/kg i.v., 12 h): 1.39 ± 0.65
nervous symptom score ([3]; M-1, TNHH 6.75 mg/kg i.v., 24 h): 1.20 ± 0.36
nervous symptom score ([3]; M-1, TNHH 6.75 mg/kg i.v., 48 h): 1.00 ± 0.42
Cerebral infarction volume (%), based on the total volume of the brain ([3]; M-2 (occlusion 2 h, reperfusion 48 h), TNHH 0.75 mg/kg i.v. (low dose)): 27.52±17.63% and 27.52 ± 7.63%
nervous symptom score ([3]; M-2 (occlusion 2 h, reperfusion 48 h), TNHH 0.75 mg/kg i.v., 2 h): 1.94 ± 0.56
Decrease in percentage (%), compared with corresponding model group ([3]; M-2, TNHH 0.75 mg/kg i.v. (low dose)): 3.63%
nervous symptom score ([3]; M-2, TNHH 0.75 mg/kg i.v., 6 h): 1.94 ± 0.56
nervous symptom score ([3]; M-2, TNHH 0.75 mg/kg i.v., 12 h): 1.94 ± 0.73
nervous symptom score ([3]; M-2, TNHH 0.75 mg/kg i.v., 24 h): 1.88 ± 0.64
nervous symptom score ([3]; M-2, TNHH 0.75 mg/kg i.v., 48 h): 1.86 ± 0.77
Cerebral infarction volume (%), based on the total volume of the brain [3, 7]: 26.07±8.06%
Decrease in percentage (%), compared with corresponding model group [3, 7]: 7.42%
nervous symptom score ([3]; M-2, TNHH 2.25 mg/kg i.v., 2 h): 1.81 ± 0.92
nervous symptom score ([3]; M-2, TNHH 2.25 mg/kg i.v., 6 h): 1.80 ± 0.92
nervous symptom score ([3]; M-2, TNHH 2.25 mg/kg i.v., 12 h): 1.79 ± 0.92
nervous symptom score ([3]; M-2, TNHH 2.25 mg/kg i.v., 24 h): 1.68 ± 0.41
nervous symptom score ([3]; M-2, TNHH 2.25 mg/kg i.v., 48 h): 1.67 ± 0.76
Cerebral infarction volume (%), based on the total volume of the brain [3, 8]: 19.72±8.90% and 19.72 ± 5.90%
Decrease in percentage (%), compared with corresponding model group [3, 8]: 29.97%
nervous symptom score ([3]; M-2, TNHH 6.75 mg/kg i.v., 2 h): 1.75 ± 0.52
nervous symptom score ([3]; M-2, TNHH 6.75 mg/kg i.v., 6 h): 1.75 ± 0.27
nervous symptom score ([3]; M-2, TNHH 6.75 mg/kg i.v., 12 h): 1.50 ± 0.45
nervous symptom score ([3]; M-2, TNHH 6.75 mg/kg i.v., 24 h): 1.37 ± 0.52
nervous symptom score ([3]; M-2, TNHH 6.75 mg/kg i.v., 48 h): 1.22 ± 0.38
Test results (blood coagulation) ([4]; 0.2 ml TNHH 0.5 mg/ml + 1.0 ml rabbit blood): coagulated
Test results (blood coagulation) ([4]; 0.2 ml TNHH 1 mg/ml + 1.0 ml rabbit blood): coag-
Test results (blood coagulation) ([4]; 0.2 ml TNHH 2 mg/ml + 1.0 ml rabbit blood): coag-
Test results (blood coagulation) ([4]; 0.2 ml TNHH 4 mg/ml + 1.0 ml rabbit blood): coag-
whole blood anticoagulation effects in vitro ([4]; TNHH 0.5-4 mg/ml): no whole blood anticoagulation effects
blood coagulation ([4]; different concentrations of TNHH (0.5-4 mg/ml)): coagulated
